Test results from paper PMC3873549, “Plant Acyl-CoA:Lysophosphatidylcholine Acyltransferases (LPCATs) Have Different Specificities in Their Forward and Reverse Reactions” (The Journal of Biological Chemistry, 2013).

Substrate: CCCCCCCC/C=C\CCCCCCCC(=O)SCCNC(=O)CCNC(=O)[C@H](O)C(C)(C)COP(=O)(O)OP(=O)(O)OC[C@H]1O[C@@H](n2cnc3c(N)ncnc32)[C@H](O)[C@@H]1OP(=O)(O)O
Test: cells, lysate or membranes
Type: cell-based, Arabidopsis thaliana
Details: acyl acceptor sn-1-18:1-LPC, pH 7.2, 30 °C, labelled compound

B1: AtLPCAT1 (Arabidopsis thaliana) (protein)
chain: MDMSSMAGSIGVSVAVLRFLLCFVATIPVSFACRIVPSRLGKHLYAAASGAFLSYLSFGFSSNLHFLVPMTIGYASMAIYRPKCGIITFFLGFAYLIGCHVFYMSGDAWKEGGIDSTGALMVLTLKVISCSMNYNDGMLKEEGLREAQKKNRLIQMPSLIEYFGYCLCCGSHFAGPVYEMKDYLEWTEGKGIWDTTEKRKKPSPYGATIRAILQAAICMALYLYLVPQYPLTRFTEPVYQEWGFLRKFSYQYMAGFTARWKYYFIWSISEASIIISGLGFSGWTDDASPKPKWDRAKNVDILGVELAKSAVQIPLVWNIQVSTWLRHYVYERLVQNGKKAGFFQLLATQTVSAVWHGLYPGYMMFFVQSALMIAGSRVIYRWQQAISPKMAMLRNIMVFINFLYTVLVLNYSAVGFMVLSLHETLTAYGSVYYIGTIIPVGLILLSYVVPAKPSRPKPRKEE
B1 gave a Km of 18 µM.
